Data published in IntAct's records for PubMed 29039417.

B1: BBSome complex member BBS1 (Homo sapiens), Q8NFJ9 (parent)
chain: MAAASSSDSDACGAESNEANSKWLDAHYDPMANIHTFSACLALADLHGDGEYKLVVGDLGPGGQQPRLKVLKGPLVMTESPLPALPAAAATFLMEQHEPRTPALALASGPCVYVYKNLRPYFKFSLPQLPPNPLEQDLWNQAKEDRIDPLTLKEMLESIRETAEEPLSIQSLRFLQLELSEMEAFVNQHKSNSIKRQTVITTMTTLKKNLADEDAVSCLVLGTENKELLVLDPEAFTILAKMSLPSVPVFLEVSGQFDVEFRLAAACRNGNIYILRRDSKHPKYCIELSAQPVGLIRVHKVLVVGSTQDSLHGFTHKGKKLWTVQMPAAILTMNLLEQHSRGLQAVMAGLANGEVRIYRDKALLNVIHTPDAVTSLCFGRYGREDNTLIMTTRGGGLIIKILKRTAVFVEGGSEVGPPPAQAMKLNVPRKTRLYVDQTLREREAGTAMHRAFQTDLYLLRLRAARAYLQALESSLSPLSTTAREPLKLHAVVQGLGPTFKLTLHLQNTSTTRPVLGLLVCFLYNEALYSLPRAFFKVPLLVPGLNYPLETFVESLSNKGISDIIKVLVLREGQSAPLLSAHVNMPGSEGLAAA
partner: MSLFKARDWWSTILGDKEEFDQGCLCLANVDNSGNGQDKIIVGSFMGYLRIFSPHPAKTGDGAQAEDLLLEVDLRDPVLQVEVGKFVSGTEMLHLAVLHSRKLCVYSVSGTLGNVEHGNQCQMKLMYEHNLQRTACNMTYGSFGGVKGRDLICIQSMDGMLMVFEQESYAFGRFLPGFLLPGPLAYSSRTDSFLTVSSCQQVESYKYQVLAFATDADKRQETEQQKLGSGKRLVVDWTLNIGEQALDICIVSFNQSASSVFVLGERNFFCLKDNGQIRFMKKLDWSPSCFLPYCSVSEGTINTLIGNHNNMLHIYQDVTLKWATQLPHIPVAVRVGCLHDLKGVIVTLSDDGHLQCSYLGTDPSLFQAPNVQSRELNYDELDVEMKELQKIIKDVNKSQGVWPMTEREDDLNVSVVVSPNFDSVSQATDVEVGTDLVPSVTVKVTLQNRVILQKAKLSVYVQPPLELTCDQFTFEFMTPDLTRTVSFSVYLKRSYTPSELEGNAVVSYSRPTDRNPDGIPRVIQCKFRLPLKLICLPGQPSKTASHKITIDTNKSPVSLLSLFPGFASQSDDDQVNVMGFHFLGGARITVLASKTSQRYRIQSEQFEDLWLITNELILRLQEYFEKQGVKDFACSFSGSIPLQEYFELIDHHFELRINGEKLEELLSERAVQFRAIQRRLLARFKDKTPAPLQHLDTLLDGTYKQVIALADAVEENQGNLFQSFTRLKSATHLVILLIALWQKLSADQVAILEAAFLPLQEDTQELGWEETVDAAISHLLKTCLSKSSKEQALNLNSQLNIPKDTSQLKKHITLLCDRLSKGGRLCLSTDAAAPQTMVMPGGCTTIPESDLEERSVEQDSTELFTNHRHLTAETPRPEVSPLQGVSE

Variants of: B1
Settings: with pthb1_human BBS9, Q3SYG4

Variant	effect of a mutation on the interaction
MAAASSSDSDACGAESNEANSKWLDAHYDPMANIHTFSACLALADLHGDGEYKLVVGDLGPGGQQPRLKVLKGPLVMTESPLPALPAAAATFLMEQHEPRTPALALASGPCVYVYKNLRPYFKFSLPQLPPNPLEQDLWNQAKEDRIDPLTLKEMLESIRETAEEPLSIQSLRFLQLELSEMEAFVNQHKSNSIKRQTVITTMTTLKKNLADEDAVSCLVLGTENKELLVLDPEAFTILAKMSLPSVPVFLEVSGQFDVEFRLAAACRNGNIYILRRDSKHPKYCIELSAQPVGLIRVHKVLVVGSTQDSLHGFTHKGKKLWTVQMPAAILTMNLLEQHSRGLQAVMAGLANGEVRIYRDKALLNVIHTPDAVTSLCFGRYGREDNTLIMTTRGGGLIIKILKRTAVFVEGGSEVGPPPAQAMKLNVPRKTRLYVDQTLREREAGTAMHRAFQTDLYLLRLRAARAYLQALESSLSPLSTTAREPLKLHAVVQGLGPTFKLTLHLQNTSTTRPVLGLLVCKLYNEALYSLPRAFFKVPLLVPGLNYPLETFVESLSNKGISDIIKVLVLREGQSAPLLSAHVNMPGSEGLAAA [F521K]	disrupting interaction strength
MAAASSSDSDACGAESNEANSKWLDAHYDPMANIHTFSACLALADLHGDGEYKLVVGDLGPGGQQPRLKVLKGPLVMTESPLPALPAAAATFLMEQHEPRTPALALASGPCVYVYKNLRPYFKFSLPQLPPNPLEQDLWNQAKEDRIDPLTLKEMLESIRETAEEPLSIQSLRFLQLELSEMEAFVNQHKSNSIKRQTVITTMTTLKKNLADEDAVSCLVLGTENKELLVLDPEAFTILAKMSLPSVPVFLEVSGQFDVEFRLAAACRNGNIYILRRDSKHPKYCIELSAQPVGLIRVHKVLVVGSTQDSLHGFTHKGKKLWTVQMPAAILTMNLLEQHSRGLQAVMAGLANGEVRIYRDKALLNVIHTPDAVTSLCFGRYGREDNTLIMTTRGGGLIIKILKRTAVFVEGGSEVGPPPAQAMKLNVPRKTRLYVDQTLREREAGTAMHRAFQTDLYLLRLRAARAYLQALESSLSPLSTTAREPLKLHAVVQGLGPTFKLTLHLQNTSTTRPVLGLLVCFLANEALYSLPRAFFKVPLLVPGLNYPLETFVESLSNKGISDIIKVLVLREGQSAPLLSAHVNMPGSEGLAAA [Y523A]	disrupting interaction strength
MAAASSSDSDACGAESNEANSKWLDAHYDPMANIHTFSACLALADLHGDGEYKLVVGDLGPGGQQPRLKVLKGPLVMTESPLPALPAAAATFLMEQHEPRTPALALASGPCVYVYKNLRPYFKFSLPQLPPNPLEQDLWNQAKEDRIDPLTLKEMLESIRETAEEPLSIQSLRFLQLELSEMEAFVNQHKSNSIKRQTVITTMTTLKKNLADEDAVSCLVLGTENKELLVLDPEAFTILAKMSLPSVPVFLEVSGQFDVEFRLAAACRNGNIYILRRDSKHPKYCIELSAQPVGLIRVHKVLVVGSTQDSLHGFTHKGKKLWTVQMPAAILTMNLLEQHSRGLQAVMAGLANGEVRIYRDKALLNVIHTPDAVTSLCFGRYGREDNTLIMTTRGGGLIIKILKRTAVFVEGGSEVGPPPAQAMKLNVPRKTRLYVDQTLREREAGTAMHRAFQTDLYLLRLRAARAYLQALESSLSPLSTTAREPLKLHAVVQGLGPTFKLTLHLQNTSTTRPVLGLLVEFLYNEALYSLPRAFFKVPLLVPGLNYPLETFVESLSNKGISDIIKVLVLREGQSAPLLSAHVNMPGSEGLAAA [C520E]	with no effect
MAAASSSDSDACGAESNEANSKWLDAHYDPMANIHTFSACLALADLHGDGEYKLVVGDLGPGGQQPRLKVLKGPLVMTESPLPALPAAAATFLMEQHEPRTPALALASGPCVYVYKNLRPYFKFSLPQLPPNPLEQDLWNQAKEDRIDPLTLKEMLESIRETAEEPLSIQSLRFLQLELSEMEAFVNQHKSNSIKRQTVITTMTTLKKNLADEDAVSCLVLGTENKELLVLDPEAFTILAKMSLPSVPVFLEVSGQFDVEFRLAAACRNGNIYILRRDSKHPKYCIELSAQPVGLIRVHKVLVVGSTQDSLHGFTHKGKKLWTVQMPAAILTMNLLEQHSRGLQAVMAGLANGEVRIYRDKALLNVIHTPDAVTSLCFGRYGREDNTLIMTTRGGGLIIKILKRTAVFVEGGSEVGPPPAQAMKLNVPRKTRLYVDQTLREREAGTAMHRAFQTDLYLLRLRAARAYLQALESSLSPLSTTAREPLKLHAVVQGLGPTFKLTLHLQNTSTTRPVLGLLVKFLYNEALYSLPRAFFKVPLLVPGLNYPLETFVESLSNKGISDIIKVLVLREGQSAPLLSAHVNMPGSEGLAAA [C520K]	with no effect
MAAASSSDSDACGAESNEANSKWLDAHYDPMANIHTFSACLALADLHGDGEYKLVVGDLGPGGQQPRLKVLKGPLVMTESPLPALPAAAATFLMEQHEPRTPALALASGPCVYVYKNLRPYFKFSLPQLPPNPLEQDLWNQAKEDRIDPLTLKEMLESIRETAEEPLSIQSLRFLQLELSEMEAFVNQHKSNSIKRQTVITTMTTLKKNLADEDAVSCLVLGTENKELLVLDPEAFTILAKMSLPSVPVFLEVSGQFDVEFRLAAACRNGNIYILRRDSKHPKYCIELSAQPVGLIRVHKVLVVGSTQDSLHGFTHKGKKLWTVQMPAAILTMNLLEQHSRGLQAVMAGLANGEVRIYRDKALLNVIHTPDAVTSLCFGRYGREDNTLIMTTRGGGLIIKILKRTAVFVEGGSEVGPPPAQAMKLNVPRKTRLYVDQTLREREAGTAMHRAFQTDLYLLRLRAARAYLQALESSLSPLSTTAREPLKLHAVVQGLGPTFKLTLHLQNTSTTRPVLGLLVAFLYNEALYSLPRAFFKVPLLVPGLNYPLETFVESLSNKGISDIIKVLVLREGQSAPLLSAHVNMPGSEGLAAA [C520A]	with no effect
